{
  "source": "patent US10301596B2",
  "about": "“Method of repairing damaged chondrocytes via low-dose irradiation” (KOREA INSTITUTE OF RADIOLOGICAL & MEDICAL SCIENCES, priority 2013, dated 2019)",
  "molecules": {"B1": {"name": "epidermal growth factor (protein, UniProt P01133 23-1207, looked up)", "Pro-epidermal growth factor": "PQHWSCPEGTLAGNGNSTCVGPAPFLIFSHGNSIFRIDTEGTNYEQLVVDAGVSVIMDFHYNEKRIYWVDLERQLLQRVFLNGSRQERVCNIEKNVSGMAINWINEEVIWSNQQEGIITVTDMKGNNSHILLSALKYPANVAVDPVERFIFWSSEVAGSLYRADLDGVGVKALLETSEKITAVSLDVLDKRLFWIQYNREGSNSLICSCDYDGGSVHISKHPTQHNLFAMSLFGDRIFYSTWKMKTIWIANKHTGKDMVRINLHSSFVPLGELKVVHPLAQPKAEDDTWEPEQKLCKLRKGNCSSTVCGQDLQSHLCMCAEGYALSRDRKYCEDVNECAFWNHGCTLGCKNTPGSYYCTCPVGFVLLPDGKRCHQLVSCPRNVSECSHDCVLTSEGPLCFCPEGSVLERDGKTCSGCSSPDNGGCSQLCVPLSPVSWECDCFPGYDLQLDEKSCAASGPQPFLLFANSQDIRHMHFDGTDYGTLLSQQMGMVYALDHDPVENKIYFAHTALKWIERANMDGSQRERLIEEGVDVPEGLAVDWIGRRFYWTDRGKSLIGRSDLNGKRSKIITKENISQPRGIAVHPMAKRLFWTDTGINPRIESSSLQGLGRLVIASSDLIWPSGITIDFLTDKLYWCDAKQSVIEMANLDGSKRRRLTQNDVGHPFAVAVFEDYVWFSDWAMPSVMRVNKRTGKDRVRLQGSMLKPSSLVVVHPLAKPGADPCLYQNGGCEHICKKRLGTAWCSCREGFMKASDGKTCLALDGHQLLAGGEVDLKNQVTPLDILSKTRVSEDNITESQHMLVAEIMVSDQDDCAPVGCSMYARCISEGEDATCQCLKGFAGDGKLCSDIDECEMGVPVCPPASSKCINTEGGYVCRCSEGYQGDGIHCLDIDECQLGEHSCGENASCTNTEGGYTCMCAGRLSEPGLICPDSTPPPHLREDDHHYSVRNSDSECPLSHDGYCLHDGVCMYIEALDKYACNCVVGYIGERCQYRDLKWWELRHAGHGQQQKVIVVAVCVVVLVMLLLLSLWGAHYYRTQKLLSKNPKNPYEESSRDVRSRRPADTEDGMSSCPQPWFVVIKEHQDLKNGGQPVAGEDGQAADGSMQPTSWRQEPQLCGMGTEQGCWIPVSSDKGSCPQVMERSFHMPSYGTQTLEGGVEKPHSLLSANPLWQQRALDPPHQMELTQ", "modifications": "Pro-epidermal growth factor", "notes": "agent known to induce dedifferentiation of chondrocytes"}},
  "test_system": "chondrocytes",
  "assay": "Levels of differentiation- and inflammation-related proteins (type II collagen, Sox-9, I-κB, COX-2), Western blot in chondrocytes",
  "assay_type": "cell-based",
  "conditions": "10 ng/mL EGF, 10 nM PMA or 1 μM RA",
  "protocol": "First, the chondrocytes derived from joints were cultured in a DMEM medium according to a known method (E. H. Hong, et al., J. Biol. Chem. 285:1283-1295, 2010). Then, the cultured chondrocytes were inoculated into culture dishes at a density of 5×10^4 cells/cm^2, which were irradiated with 0 cGy, 0.5 cGy, 1.0 cGy, 1.5 cGy, and 2.0 cGy LDR using a ^137Cs-ray source (KIRMS, Korea), and the levels of type II collagen or Sox-9 protein, which are cartilage-specific differentiation marker proteins, and I-κB or COX-2 protein, which are inflammation-related proteins, were determined via Western blot analysis, and the transcriptional activity of Sox-9 protein and NF-κB, which is affected by I-κB, were determined by reporter gene assay (FIGS. 1a and b). […]\nFinally, chondrocytes were transfected with 3 μg of GFP-labeled S83A α-catenin, FLAG-labeled S33A β-catenin, or wild type γ-catenin, reacted with or without treatment with 5 μM or 10 μM BAY 11-7082 for 24 hours, and the levels of I-κB and COX-2 proteins were determined via Western blot analysis (FIG. 5g). […]",
  "data": [
    {"molecule": "B1", "values": [
      {"measurement": "pathological changes induced by soluble factor (type II collagen, Sox-9, COX-2 proteins)", "result": "inhibition of expression of type II collagen and Sox-9 proteins and induction of COX-2 protein expression"}
    ]}
  ]
}
